Measurements as given in patent publication US20260166115A1, “POLYUNSATURATED FATTY ACID-BOUND ALPHA FETOPROTEIN PROMOTES IMMUNE SUPPRESSION BY ALTERING HUMAN DENDRITIC CELL METABOLISM” (The Regents of the University of California, priority 2022, published 2026).

Tests used:
mDCs generated in vitro = assay: scMEP single-cell metabolic regulome profiling by CyTOF; format: cell-based, human
Procedure: scMEP analysis was performed as recently described (Hartmann et al., 2021). In short, antibodies targeting metabolic features were conjugated in-house using an optimized conjugation protocol (Hartmann et al., 2019) and validated on multiple sample types. Cells were prepared for scMEP analysis by incubation with small molecules to be able to assess biosynthesis rates of DNA, RNA and protein, cisplatin-based live/dead staining, PFA-based cell fixation and cryopreservation (dx.doi.org/10.17504/protocols.io.bkwkkxcw). Next, cells were stained with metabolic antibodies in a procedure that includes surface staining for 30 min at RT, PFA-fixation for 10 min at RT, MeOH-based permeabilization for 10 min on ice, intracellular staining for 1 h at RT and DNA intercalation (dx.doi.org/10.17504/protocols.io.bntnmeme). Finally, cells were acquired on a CyTOF2 mass cytometer (Fluidigm). Protein targets and antibody information used in scMEP are listed in supplementary table 2. Raw mass spectrometry data were pre-processed, de-barcoded and imported into R environment using the flowCore package (version 2.0.1) (Hahne et al., 2009). Values were arcsin h transformed (cofactor 5) and normalized (Hartmann et al., 2021) for downstream analyses based on previously reported workflow (Nowicka et al., 2017).

[1] = test system: monocyte-derived dendritic cells (DCs); assay: Glucose and lactate measurements in DC cultures; format: cell-based, human
Excerpt: (§1) DCs were differentiated in vitro similarly as previously described (Pardee, A. D., Shi, J. & Butterfield, L. H. Tumor-Derived α-Fetoprotein Impairs the Differentiation and T Cell Stimulatory Activity of Human Dendritic Cells. J Immunol. 193, 5723-5732 (2014)). In brief, cryopreserved PBMC were thawed and CD14*monocytes were magnetically labeled using CD14 MicroBeads (Miltenyi, Cat #130-050-201) and isolated by LS columns (Miltenyi, Cat #130-042-401) per the manufacturer instructions. Viable eluted cells were enumerated using trypan blue on a Nexcelom Cellometer Spectrum. To generate iDCs, monocytes were stimulated for 5 days in the presence of 800 IU/mL of rGM-CSF (Miltenyi, Cat #130-093-862) and 500 IU/mL of rIL-4 (Miltenyi, Cat #130-095-373) as well as OVA, nAFP, or tAFP in CellGenix® GMP DC media (Cat #20801-0500) 37° C. at 5% CO2. Lastly, we performed an additional 24-hour stimulation with 1000 IU/mL of rIFN-γ (Peprotech, Cat #300-02) and 250 ng/mL of LPS (Sigma Aldrich, Cat #L2630-10MG) to produce mDCs. To harvest cells, DC were detached using TrypLE™ Select (Gibco, Cat #12563011) for 15 minutes at 37° C. and then washed several times with cold PBS.
Glucose and lactate were measured by applying approximately 5 μL of supernatant to Clarity BG1000 Blood Glucose strips (Cat #75840-798) and meter (Cat #75840-800) system or the Lactate Plus strips (Nova Biomedical©, Cat #40813) and meter version 2 (Nova Biomedical©, Cat #62624) system. Each meter was quality checked with control glucose and lactate solutions and CellGenix™ media before each experiment.

iDCs = assay: Intracellular Zn measurement by flow cytometry; format: cell-based, human; conditions: P=0.0293 vs nAFP, P=0.0228 vs OVA
Procedure: Intracellular Zn was quantified by flow cytometry using the Zinc Assay Kit (Cell-based) (Abcam, Cat #ab241014). Monocytes were differentiated to iDCs as described above in the presence of OVA, nAFP, tAFP, or ZnSO4. […] Cells were stained with LD Aqua for 10 minutes at RT. Cells were washed in 1× Assay Buffer, then stained in 100 μL of Assay Buffer+0.2 μL of Zn Probe for 30 minutes at 37° C. Cells were then washed twice with 1× Assay buffer then stained with HLA-DR-APC-H7 (BD, Clone: GF6-6, Cat #561358, Lot #0023290, 0339025), CD86-BV785 (BioLegend, Clone: IT2.2, Cat #305441, Lot #B277560), CD206 PE-Cy7 (Biolegend, Clone: 15-2, Cat #321123, Lot #B331254), and CD14-BUV805 (BD, Clone: M5E2, Cat #612903, Lot #0297714), in Brilliant Stain Buffer (BD Horizon, Cat #566349, Lot #0121427) for 20 minutes at 4° C. Cells were washed twice in FACS Buffer and fixed in 1% paraformaldehyde (Thermo Scientific, Cat #J19943-K2, Lot #195273, diluted in PBS) for at least 30 minutes before acquisition on a BD LSRFortessam X-50.

[2] = test system: iDCs differentiated from monocytes; assay: Microarray gene expression and g:Profiler pathway analysis of treated DCs; format: cell-based, human
Excerpt: OVA, nAFP, and tAFP-treated DC were lysed, and total mRNA was obtained for microarray (Affymetrix HG-U133A). DE genes were uploaded in g:Profiler in R Studio for pathway analysis and visualization (Raudvere, U. et al. g:Profiler: a web server for functional enrichment analysis and conversions of gene lists (2019 update). Nucleic Acids Res. 47, W191-W198 (2019)).

[3] = test system: monocyte-derived dendritic cells (DCs); assay: Flow cytometry phenotype of in vitro differentiated DCs treated with OVA, nAFP or tAFP; format: cell-based, human
Excerpt: as §1
(§2) SCENITH was performed as described in (Arguello et al., 2020). SCENITH™ reagents kit (inhibitors, puromycin and antibodies) were obtained from www.scenith.com/try-it and used according to the provided protocol for in-vitro derived myeloid cells. Briefly, control and tol-moDC cultures at desired timepoints, were treated for 18 minutes with Control (DMSO), 2-Deoxy-Glucose (2-DG; 100 mM), Oligomycin (0; 1 μM), a combination of 2DG and Oligomycin (DGO) or Harringtonine (H; 2 μg/mL). Following metabolic inhibitors, Puromycin (final concentration 10 μg/mL) was added to cultures for 17 min. After puromycin treatment, cells were detached from wells using TypLE Select (Fisher Scientific, 505914419), washed in cold PBS and stained with a combination of Human TureStain FcX (Biolegend, 422301) and fluorescent cell viability dye (Biolegend, 423105) for 10 min 4° C. in PBS. Following PBS wash step, primary antibodies against surface markers were incubated for 25 min at 4° C. in Brilliant Stain Buffer (BD Biosciences, 563794). Next cells were fixed and permeabilized using True-Nuclear Transcription Factor Buffer Set (Biolegend, 424401) as per manufacturer instructions. Intracellular staining of puromycin and protein targets was performed for 1 h in diluted (10×) permeabilization buffer at 4° C. Finally, data acquisition was performed using the Cytek Aurora flow cytometer. Primary conjugated antibody information used in SCENITH panel is listed in supplementary table 1. All antibodies were titrated to reduce spillover and increase resolution using single stained moDC (generated as described above) samples. Unstained cell controls used for autofluorescence extraction were generated for each time point, culture conditions (control, vitd3-tol-moDC and dexa-vitd3-tol-moDC) and metabolic inhibitor treatments (C, 2DG, O, DGO). Samples were unmixed using reference controls generated in combination with stained Ultracomp beads (Fisher Scientific, 01-2222-41) and stained cells using the SpectroFlo Software v2.2.0.1. The unmixed FCS files were used for data processing and analysis using FlowJo (BD, version 10.7.1). Manually gated CD14-HLA-DR*CD86+ cells were used for downstream analysis. gMFI expression values were imported into R environment for correlation and heatmap analysis using the below described R packages.

[4] = test system: monocyte-derived dendritic cells (DCs); assay: SCENITH single-cell energetic metabolism profiling of treated DCs; format: cell-based, human; conditions: mDC HLA-DR+, CD206+, CD86+
Excerpt: as §1, §2

dendritic cells (DCs) = conditions: tAFP-treated DCs; cited from earlier work

B1: tAFP: tumor-derived alpha fetoprotein, SEQ ID NO: 1; commercially available (Bio-Rad) (protein, listed as Homo sapiens)
chain: MKWVESIFLIFLLNFTESRTLHRNEYGIASILDSYQCTAEISLADLATIFFAQFVQEATYKEVSKMVKDALTAIEKPTGDEQSSGCLENQLPAFLEELCHEKEILEKYGHSDCCSQSEEGRHNCFLAHKKPTPASIPLFQVPEPVTSCEAYEEDRETFMNKFIYEIARRHPFLYAPTILLWAARYDKIIPSCCKAENAVECFQTKAATVTKELRESSLLNQHACAVMKNFGTRTFQAITVTKLSQKFTKVNFTEIQKLVLDVAHVHEHCCRGDVLDCLQDGEKIMSYICSQQDTLSNKITECCKLTTLERGQCIIHAENDEKPEGLSPNLNRFLGDRDFNQFSSGEKNIFLASFVHEYSRRHPQLAVSVILRVAKGYQELLEKCFQTENPLECQDKGEEELQKYIQESQALAKRSCGLFQKLGEYYLQNAFLVAYTKKAPQLTSSELMAITRKMAATAATCCQLSEDKLLACGEGAADIIIGHLCIRHEMTPVNPGVGQCCTSSYANRRPCFSSLVVDETYVPPAFSDDKFIFHKDLCQAQGVALQTMKQEFLINLVKQKPQITEEQLEAVIADFSGLLEKCCQGQEQEVCFAEEGQKLISKTRAALGV
ASCT2 (mDCs generated in vitro): unchanged | ETC/TCA parameters ATP5A, CS and SDHA (mDCs generated in vitro): lower | GLS (mDCs generated in vitro): tended to be lower | amino acid pathway proteins CD98 and G6PD (mDCs generated in vitro): significantly decreased | expression of DC markers CD206, PD-L1, CD11b, CD1c, HLA-DR, CD86 and CD11c (mDCs generated in vitro): reduced expression | glycolysis proteins (GLUT1, GLUT3, LDHA, ENO1, GAPDH, and MTC1) (mDCs generated in vitro): modest differences that were not statistically significant | levels of cytochrome C (CytC) (mDCs generated in vitro): elevated | FAO or FAS proteins CD36, CDPT1A, HADHA, and ACLY (mDCs generated in vitro; mDCs): decreased | intracellular glucose [1]: increase | glucose uptake ([1]; DC): take up more glucose | glucose in the culture supernatants ([1]; day 6): significantly less | lactate secreted, relative to OVA-treated DCs ([1]; media of treated DCs, all HDs): approximately twice | increase in Zn MFI compared to nAFP or OVA-treated iDCs (iDCs): ~30% | ACS gene [2]: did not reach statistical significance | SLC2A3 (GLUT3) gene expression [2]: increase | gene expression of CPT1A [2]: increased | genes involved in fatty acid metabolism (PDH, ACLY, ACC, FASN, LPL, CD36, CACT) [2]: downregulation | pathways associated with lipid metabolism ([2]; tAFP compared to nAFP): significantly downregulated | upregulated gene pathways ([2]; tAFP compared to nAFP): stress response to metal ions, particularly zinc | expression of pAMPK [3]: decreased expression | expression of the fatty acid transporter CD36 [3]: decline | co-expression of multiple activation markers (HLA-DR, CD206, CD86, ICOSLG/CD275) ([3]; Boolean analysis): decreased co-expression | DC CD86 expression ([3]; tAFP-treated DC): trend for reduced | DC CD206 expression ([3]; tAFP-treated DC): limited | DC HLA-DR expression ([3]; tAFP-treated DC): limited | fatty acid and glutaminolysis (FAAO) (SCENITH) [4]: reduction | glycolysis (SCENITH) [4]: dramatic increase | mitochondrial dependency (SCENITH) [4]: reduction | mitochondrial mass (dendritic cells (DCs)): decreased
